The source of these data is paper PMC2150735.

Read-outs that look alike come from different tables or passages of the source.

For one assay, the target named is GST-RanBP3 (human). Nature of the assay: pull-down.
In assay [1] the target is Crm1-His6 (human) (UniProt O14980). Nature of the assay: ELISA. For orientation: In an ELISA, binding on a coated surface is turned into a signal by an enzyme label.
The target is the same in assay [2]. Nature of the assay: ELISA. The source holds these as a separate data set.

For the substance “Crm1-His6 (from UniProt O14980 1-1071) (receptor)”, in the assay with GST-RanBP3 (human), the ratio bound/total at 1 min, with RanBP1 is 0.52; the ratio bound/total at 1 min, without RanBP1 came out at 0.59; the ratio bound/total at 10 min, with RanBP1 was 0.39.
With GST-RanBP3 (natural protein), the dissociation constant Kd (commonly the free concentration of one partner at which half of the binding sites on the other are occupied at equilibrium, for simple one-to-one binding) with Crm1-His6 (human) [1] turned out to be 106 nM; with Crm1-His6 (human) [2], 64 nM.
